Earlier results on five substances are cited in article PMC6868133 (Scientific Reports, 2019).

For data set [1] the following is noted: rhesus monkey, in vivo, sc.
Data set [2] relates to fasting plasma glucose levels. As to conditions: humans. An excerpt: The goal of the current study was to evaluate the pharmacokinetic properties of a single-dose of PT320 in healthy nonhuman primates. […] Systemic Exenatide ...
The conditions of data set [3]: human, in vivo.
Where [4] appears, read: Long-Acting (> 24 hr), ref supplement [3-5].

Where two headings read alike, the source gives them in different places.

In the case of Exenatide, the “terminal disappearance half-life from plasma” value in data set [1] is 0.78 to 1.94 h. In data set [2], the “minimally effective concentration (level required to reduce fasting plasma glucose levels)” value is listed as “approximately 50 pg/ml”. Further, in data set [3], the “patients with higher-titer antibodies (≥625)” value is 5% and the “patients with low anti-Exenatide antibody titers (≤125)” value is on record as 32%.
Turning to Semaglutide, the “Half Life (T1/2)” value under setting [4] is 140 to 170 h.
Consider albiglutide, for which the “Half Life (T1/2)” value under setting [4] is 140 to 170 h. Further, for the setting “long-acting GLP-1R agonists”, the T1/2 is 140 to 170 h.
On to dulaglutide, for which, under setting [4], the “Half Life (T1/2)” value is 96 h. The T1/2 (long-acting GLP-1R agonists) is 96 h.
Turning to lixisenatide, where the note is “Short-Acting (< 24 hr), ref supplement [1,2]”, the “Half Life (T1/2)” value is 3 h. Further, the T1/2 (short-acting GLP-1R agonist, administered once daily) was 3 h.
